Measurements taken from US5710244A, “Derivatized calcitonins” (priority 1993, dated 1998).
Numbered stars: 1 amine (or outer) side, 2 acyl side, 3 side chain; on linkers, the order of the positions; unused ones are H or OH. Bridge positions count the residues as written; N and C are the ends. * marks the point of attachment. X1 = 2,2'‑bipyridine‑4,4'‑dicarboxylic acid, O=C(O)c1ccnc(-c2cc(C(=O)*)ccn2)c1; X2 = 2,2'‑bipyridine‑5,5'‑dicarboxylic acid, O=C(O)c1ccc(-c2ccc(C(=O)*)cn2)nc1; Biphenyldicarbonyl(4,4') = O=C(c1ccc(-c2ccc(C(=O)[*:2])cc2)cc1)[*:1]; Pyrazinecarbonyl = O=C(c1cnccn1)*; Nicotinoyl = O=C(c1cccnc1)*

T1: recombinant human calcitonin receptor (human, UniProt P30988)
T1 sequence: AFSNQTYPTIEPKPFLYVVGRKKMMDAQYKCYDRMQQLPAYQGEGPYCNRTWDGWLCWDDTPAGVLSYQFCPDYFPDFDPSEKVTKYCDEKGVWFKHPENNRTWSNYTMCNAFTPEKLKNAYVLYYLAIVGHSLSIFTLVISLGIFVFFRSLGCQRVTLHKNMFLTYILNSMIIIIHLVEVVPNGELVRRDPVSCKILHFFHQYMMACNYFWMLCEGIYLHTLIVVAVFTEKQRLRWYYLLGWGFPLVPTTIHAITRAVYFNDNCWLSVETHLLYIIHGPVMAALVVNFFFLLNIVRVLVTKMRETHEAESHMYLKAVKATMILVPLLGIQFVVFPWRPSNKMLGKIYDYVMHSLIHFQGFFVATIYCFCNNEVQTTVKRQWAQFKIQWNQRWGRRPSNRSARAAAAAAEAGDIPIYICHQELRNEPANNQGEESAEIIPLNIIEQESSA


Assays:
[1] = test system: endogenous hamster calcitonin receptor; test: CRE-linked luciferase (cyclic AMP) induction in BHK cells expressing endogenous hamster calcitonin receptor; format: cell-based; conditions: for % SCT EC50, Hamster CT receptor: EC50 as % of salmon calcitonin (SCT) EC50, CRE-luciferase, BHK cells, 4 h induction
Protocol: A BHK cell line expressing the endogenous hamster calcitonin receptor was transfected with plasmid KZ10-20-48 to provide the CRE-inducible luciferase receptor described above. The transfected cells were cultured in selective growth medium containing both 500 μg/mL G418-neomycin and 250 nM methotrexate.
Cells expressing the calcitonin receptor were assayed in triplicate for the induction of the CRE-linked luciferase response to salmon calcitonin (SCT) and derivatized calcitonins at concentrations ranging from 10^-13 M to 10^-6 M. MICROLITE flat bottom tissue culture plates (Baxter Scientific Products, Chicago, Ill.) were set up such that each well contained 2×10^4 cells in 100 μl of selection media, and the cells were grown overnight. SCT and GF43 were prepared at 2X the final assay concentration to give 10^-13 to 10^-6 M in growth medium. Induction was initiated by removing old medium from the wells and adding 100 μl of fresh growth medium and 100 μl of either 2X solution in triplicate sample wells. Uninduced luciferase levels were determined in triplicate wells to which 100 μl of DMEM containing 10% fetal calf serum was added. The plates were incubated for four hours at 37° C., 5% CO2 to allow induction of luciferase. Following induction, the media were removed, and the wells were washed once with 200 μl/well PBS. After the wash, 20 μl of a 1:5 dilution (in sterile water) of the stock Cell Culture Lysis Reagent (Luciferase Assay System, Promega Corp., Madison, Wis.) was added to each well, and the plates were incubated for 15 minutes at room temperature. The plates were transferred to a Labsystems Luminoskan microtiter luminometer (Labsystems Inc., Morton Grove, Ill.) which added 40 μl of Luciferase Assay Substrate (Luciferase Assay System, Promega), mixed the reaction for three seconds and integrated the luciferase signal for two seconds per well. The fold induction of luciferase for each compound was calculated as follows:
Fold induction=Induced signal-Uninduced signal Uninduced signal

[2] = biological target: endogenous hamster calcitonin receptor (hamster)
[3] = biological target: T1, recombinant human calcitonin receptor; test: cell-based or functional assay

Molecule | % SCT EC50, Hamster CT receptor [1] [%] | % SCT EC50, Hamster CT receptor (× 10^3) ([1]; EC50 as % of SCT EC50, the factor × 10^3 is printed under the HCT value only) | % SCT EC50 (CRE-linked luciferase induction) [2] [% SCT EC50] | % SCT EC50 (CRE-linked luciferase induction) [3] [% SCT EC50]
ZP-3: 4-4'-biphenyldicarboxylic acid modified salmon calcitonin | 341 |  |  | 
ZP-2: 2,2'-bipyridine-5,5'-dicarboxylic acid modified salmon calcitonin | 125 |  |  | 
ZP-10: nipecotic acid modified salmon calcitonin | 152 |  |  | 
ZP-7: 2-Pyrazinoyl-modified salmon calcitonin | 155 |  |  | 
human calcitonin [HCT, reference compound] |  | 5.9 × 10^3% |  | 
human calcitonin (from UniProt P01258) (peptide) |  |  | 5900 | 
CSNLSTCVLGKLSQELHKLQTYPRTNTGSGTP (N-terminal amino group acylated with isonipecotic acid (amide linkage); C-terminal amide; disulfide Cys1-Cys7) [isonipecotic acid modified salmon calcitonin] |  |  | 106 | 146
CSNLSTCVLGKLSQELHKLQTYPRTNTGSGTP (N-terminal amino group acylated with DL-pipecolinic acid (amide linkage); C-terminal amide; disulfide Cys1-Cys7) [DL-pipecolinic acid modified salmon calcitonin] |  |  | 147 | 230
Nicotinoyl-CSNLSTCVLGKLSQELHKLQTYPRTNTGSGTP-NH2 (disulfide 1-7; SMILES CC(C)C[C@H](NC(=O)[C@H](CCCCN)NC(=O)CNC(=O)[C@H](CC(C)C)NC(=O)[C@@H](NC(=O)[C@@H]1CSSC[C@H](NC(=O)c2cccnc2)C(=O)N[C@@H](CO)C(=O)N[C@@H](CC(N)=O)C(=O)N[C@@H](CC(C)C)C(=O)N[C@@H](CO)C(=O)N[C@@H]([C@@H](C)O)C(=O)N1)C(C)C)C(=O)N[C@@H](CO)C(=O)N[C@@H](CCC(N)=O)C(=O)N[C@@H](CCC(=O)O)C(=O)N[C@@H](CC(C)C)C(=O)N[C@@H](Cc1c[nH]cn1)C(=O)N[C@@H](CCCCN)C(=O)N[C@@H](CC(C)C)C(=O)N[C@@H](CCC(N)=O)C(=O)N[C@H](C(=O)N[C@@H](Cc1ccc(O)cc1)C(=O)N1CCC[C@H]1C(=O)N[C@@H](CCCNC(=N)N)C(=O)N[C@H](C(=O)N[C@@H](CC(N)=O)C(=O)N[C@H](C(=O)NCC(=O)N[C@@H](CO)C(=O)NCC(=O)N[C@H](C(=O)N1CCC[C@H]1C(N)=O)[C@@H](C)O)[C@@H](C)O)[C@@H](C)O)[C@@H](C)O) [Nicotinic acid-modified Calcitonin] |  |  | 71 | 112
Pyrazinecarbonyl-CSNLSTCVLGKLSQELHKLQTYPRTNTGSGTP-NH2 (disulfide 1-7; SMILES CC(C)C[C@H](NC(=O)[C@H](CCCCN)NC(=O)CNC(=O)[C@H](CC(C)C)NC(=O)[C@@H](NC(=O)[C@@H]1CSSC[C@H](NC(=O)c2cnccn2)C(=O)N[C@@H](CO)C(=O)N[C@@H](CC(N)=O)C(=O)N[C@@H](CC(C)C)C(=O)N[C@@H](CO)C(=O)N[C@@H]([C@@H](C)O)C(=O)N1)C(C)C)C(=O)N[C@@H](CO)C(=O)N[C@@H](CCC(N)=O)C(=O)N[C@@H](CCC(=O)O)C(=O)N[C@@H](CC(C)C)C(=O)N[C@@H](Cc1c[nH]cn1)C(=O)N[C@@H](CCCCN)C(=O)N[C@@H](CC(C)C)C(=O)N[C@@H](CCC(N)=O)C(=O)N[C@H](C(=O)N[C@@H](Cc1ccc(O)cc1)C(=O)N1CCC[C@H]1C(=O)N[C@@H](CCCNC(=N)N)C(=O)N[C@H](C(=O)N[C@@H](CC(N)=O)C(=O)N[C@H](C(=O)NCC(=O)N[C@@H](CO)C(=O)NCC(=O)N[C@H](C(=O)N1CCC[C@H]1C(N)=O)[C@@H](C)O)[C@@H](C)O)[C@@H](C)O)[C@@H](C)O) [2-Pyrazinoyl-modified calcitonin] |  |  | 155 | 158
X1-CSNLSTCVLGKLSQELHKLQTYPRTNTGSGTP-NH2 (disulfide 1-7; SMILES CC(C)C[C@H](NC(=O)[C@H](CCCCN)NC(=O)CNC(=O)[C@H](CC(C)C)NC(=O)[C@@H](NC(=O)[C@@H]1CSSC[C@H](NC(=O)c2ccnc(-c3cc(C(=O)O)ccn3)c2)C(=O)N[C@@H](CO)C(=O)N[C@@H](CC(N)=O)C(=O)N[C@@H](CC(C)C)C(=O)N[C@@H](CO)C(=O)N[C@@H]([C@@H](C)O)C(=O)N1)C(C)C)C(=O)N[C@@H](CO)C(=O)N[C@@H](CCC(N)=O)C(=O)N[C@@H](CCC(=O)O)C(=O)N[C@@H](CC(C)C)C(=O)N[C@@H](Cc1c[nH]cn1)C(=O)N[C@@H](CCCCN)C(=O)N[C@@H](CC(C)C)C(=O)N[C@@H](CCC(N)=O)C(=O)N[C@H](C(=O)N[C@@H](Cc1ccc(O)cc1)C(=O)N1CCC[C@H]1C(=O)N[C@@H](CCCNC(=N)N)C(=O)N[C@H](C(=O)N[C@@H](CC(N)=O)C(=O)N[C@H](C(=O)NCC(=O)N[C@@H](CO)C(=O)NCC(=O)N[C@H](C(=O)N1CCC[C@H]1C(N)=O)[C@@H](C)O)[C@@H](C)O)[C@@H](C)O)[C@@H](C)O) [Bipyridine-modified Calcitonin] |  |  | 73 | 97
{nipecotic acid}-CSNLSTCVLGKLSQELHKLQTYPRTNTGSGTP-NH2 (disulfide 1-7) [nipecotic acid modified salmon calcitonin] |  |  | 152 | 243
{picolinic acid}-CSNLSTCVLGKLSQELHKLQTYPRTNTGSGTP-NH2 (disulfide 1-7) [Pycolinyl-modified Calcitonin] |  |  | 98 | 140
X2-CSNLSTCVLGKLSQELHKLQTYPRTNTGSGTP-NH2 (disulfide 1-7; SMILES CC(C)C[C@H](NC(=O)[C@H](CCCCN)NC(=O)CNC(=O)[C@H](CC(C)C)NC(=O)[C@@H](NC(=O)[C@@H]1CSSC[C@H](NC(=O)c2ccc(-c3ccc(C(=O)O)cn3)nc2)C(=O)N[C@@H](CO)C(=O)N[C@@H](CC(N)=O)C(=O)N[C@@H](CC(C)C)C(=O)N[C@@H](CO)C(=O)N[C@@H]([C@@H](C)O)C(=O)N1)C(C)C)C(=O)N[C@@H](CO)C(=O)N[C@@H](CCC(N)=O)C(=O)N[C@@H](CCC(=O)O)C(=O)N[C@@H](CC(C)C)C(=O)N[C@@H](Cc1c[nH]cn1)C(=O)N[C@@H](CCCCN)C(=O)N[C@@H](CC(C)C)C(=O)N[C@@H](CCC(N)=O)C(=O)N[C@H](C(=O)N[C@@H](Cc1ccc(O)cc1)C(=O)N1CCC[C@H]1C(=O)N[C@@H](CCCNC(=N)N)C(=O)N[C@H](C(=O)N[C@@H](CC(N)=O)C(=O)N[C@H](C(=O)NCC(=O)N[C@@H](CO)C(=O)NCC(=O)N[C@H](C(=O)N1CCC[C@H]1C(N)=O)[C@@H](C)O)[C@@H](C)O)[C@@H](C)O)[C@@H](C)O) [2,2'-bipyridine-5,5'-dicarboxylic acid modified salmon calcitonin] |  |  | 125 | 199
{Biphenyldicarbonyl(4,4')}-CSNLSTCVLGKLSQELHKLQTYPRTNTGSGTP-NH2 (disulfide 1-7; SMILES CC(C)C[C@H](NC(=O)[C@H](CCCCN)NC(=O)CNC(=O)[C@H](CC(C)C)NC(=O)[C@@H](NC(=O)[C@@H]1CSSC[C@H](NC(=O)c2ccc(-c3ccc(C(=O)O)cc3)cc2)C(=O)N[C@@H](CO)C(=O)N[C@@H](CC(N)=O)C(=O)N[C@@H](CC(C)C)C(=O)N[C@@H](CO)C(=O)N[C@@H]([C@@H](C)O)C(=O)N1)C(C)C)C(=O)N[C@@H](CO)C(=O)N[C@@H](CCC(N)=O)C(=O)N[C@@H](CCC(=O)O)C(=O)N[C@@H](CC(C)C)C(=O)N[C@@H](Cc1c[nH]cn1)C(=O)N[C@@H](CCCCN)C(=O)N[C@@H](CC(C)C)C(=O)N[C@@H](CCC(N)=O)C(=O)N[C@H](C(=O)N[C@@H](Cc1ccc(O)cc1)C(=O)N1CCC[C@H]1C(=O)N[C@@H](CCCNC(=N)N)C(=O)N[C@H](C(=O)N[C@@H](CC(N)=O)C(=O)N[C@H](C(=O)NCC(=O)N[C@@H](CO)C(=O)NCC(=O)N[C@H](C(=O)N1CCC[C@H]1C(N)=O)[C@@H](C)O)[C@@H](C)O)[C@@H](C)O)[C@@H](C)O) [4-4'-biphenyldicarboxylic acid modified salmon calcitonin] |  |  | 341 | 450
